Measurements reported in article PMC7110113, “Termination of non‐coding transcription in yeast relies on both an RNA Pol II CTD interaction domain and a CTD‐mimicking region in Sen1” (The EMBO Journal, 2020).
Changes are numbered by the printed parent chain. Ends that are not written are not given here. FAM = 5,6-carboxyfluorescein

Columns and labels:
Assay in all cases: fluorescence polarisation; fluorescence anisotropy, equilibrium binding of Nrd1 CID variants to FAM-labelled NIM peptides; 10°C, 50 mM Na2HPO4, 100 mM NaCl, pH 8; 1:1 model with non-specific binding (DynaFit)
Details in all cases: both partners purified
Nrd1 CID I130A = molecular target: T1, Nrd1 CID I130A (S. cerevisiae, UniProt P53617 1-153, I130A)
T1 construct: the construct for anisotropy is made as described previously (Kubicek et al, 2012); also called CID(I130A)-His6; source: recombinant, produced and purified as described previously (Kubicek et al, 2012); plasmid with T7 promoter
T1 sequence (looked up): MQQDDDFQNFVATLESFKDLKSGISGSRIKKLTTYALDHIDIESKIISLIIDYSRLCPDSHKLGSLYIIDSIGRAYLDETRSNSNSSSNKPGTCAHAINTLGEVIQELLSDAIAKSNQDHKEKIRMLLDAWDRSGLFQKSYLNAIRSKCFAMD

Nrd1 CID M126A = molecular target: T2, Nrd1 CID M126A (S. cerevisiae, UniProt P53617 1-153, M126A)
T2 construct: source: recombinant, produced and purified as described previously (Kubicek et al, 2012)
T2 sequence (looked up): T1 sequence (looked up) with M126A, A130I

Nrd1 CID R133A = molecular target: T3, Nrd1 CID R133A (S. cerevisiae, UniProt P53617 1-153, R133A)
T3 construct: the construct for anisotropy is made as described previously (Kubicek et al, 2012); also called CID(R133A)-His6; source: recombinant, produced and purified as described previously (Kubicek et al, 2012); plasmid with T7 promoter
T3 sequence (looked up): T1 sequence (looked up) with A130I, R133A

B1: Sen1 NIM peptide (Sen1 aa 2,052-2,063) (peptide, UniProt Q00416 2052-2063, looked up)
peptide: {FAM}-DDDEDDYTPSIS
notes: Sen1, S. cerevisiae, fragment harbouring aa 2,052-2,063; source: synthetic peptide
Kd (Nrd1 CID I130A): 7.6 ± 0.3 µM
Kd (Nrd1 CID M126A): 1.4 ± 0.07 µM
Kd (Nrd1 CID R133A): 1.8 ± 0.08 µM
